Patent US20110212843

What was measured:
[1] = target: NF-kB p50 homodimer (UniProt P19838); details: also captured on SELDI array; lost on more stringent wash
[2] = target: NF-kB p65 (Rel A) homodimer (UniProt Q04206); details: 1:1 stoichiometry
Chain of NF-kB p65 (Rel A) homodimer (Q04206 whole entry): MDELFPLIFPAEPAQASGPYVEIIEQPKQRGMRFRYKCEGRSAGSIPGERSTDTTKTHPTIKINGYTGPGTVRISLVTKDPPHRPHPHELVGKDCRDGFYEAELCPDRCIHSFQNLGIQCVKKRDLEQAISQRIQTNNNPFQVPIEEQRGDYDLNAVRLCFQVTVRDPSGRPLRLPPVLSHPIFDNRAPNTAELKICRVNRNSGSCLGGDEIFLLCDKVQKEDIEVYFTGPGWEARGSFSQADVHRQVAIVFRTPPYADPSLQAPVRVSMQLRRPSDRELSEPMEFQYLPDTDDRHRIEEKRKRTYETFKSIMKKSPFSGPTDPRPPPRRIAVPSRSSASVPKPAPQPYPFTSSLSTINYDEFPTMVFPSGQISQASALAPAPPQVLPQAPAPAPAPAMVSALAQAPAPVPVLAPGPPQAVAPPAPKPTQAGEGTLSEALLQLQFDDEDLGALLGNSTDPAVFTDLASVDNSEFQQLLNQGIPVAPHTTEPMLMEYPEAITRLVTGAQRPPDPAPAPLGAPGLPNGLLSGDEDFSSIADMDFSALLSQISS

Chain of NF-kB p50 homodimer (P19838 1-433): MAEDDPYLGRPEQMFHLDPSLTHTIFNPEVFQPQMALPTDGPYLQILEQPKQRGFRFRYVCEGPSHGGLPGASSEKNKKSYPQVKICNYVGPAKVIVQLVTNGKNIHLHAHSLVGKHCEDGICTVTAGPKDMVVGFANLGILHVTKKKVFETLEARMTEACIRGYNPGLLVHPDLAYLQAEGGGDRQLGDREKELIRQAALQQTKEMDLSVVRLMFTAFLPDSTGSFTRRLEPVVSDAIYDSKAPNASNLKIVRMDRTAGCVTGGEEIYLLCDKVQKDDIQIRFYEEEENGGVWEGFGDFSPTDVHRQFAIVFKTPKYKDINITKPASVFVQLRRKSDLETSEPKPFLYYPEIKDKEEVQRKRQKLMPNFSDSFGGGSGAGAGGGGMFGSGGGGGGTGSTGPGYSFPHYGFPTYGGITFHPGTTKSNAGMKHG

Substance: IgkB 22-mer duplex (NF-kB promoter element)
- Kd [1]: 4 nM
- Kd [2]: 4 nM
